The numbers were not newly measured in PMC9558124, which cites them from elsewhere.

A word on the Kd: it is the free concentration of one partner at which half of the binding sites on the other are occupied at equilibrium, for simple one-to-one binding.

In this data set the target is PEX19 (Homo sapiens) (UniProt P40855).
Sequence of UniProt P40855 (P40855 2-296): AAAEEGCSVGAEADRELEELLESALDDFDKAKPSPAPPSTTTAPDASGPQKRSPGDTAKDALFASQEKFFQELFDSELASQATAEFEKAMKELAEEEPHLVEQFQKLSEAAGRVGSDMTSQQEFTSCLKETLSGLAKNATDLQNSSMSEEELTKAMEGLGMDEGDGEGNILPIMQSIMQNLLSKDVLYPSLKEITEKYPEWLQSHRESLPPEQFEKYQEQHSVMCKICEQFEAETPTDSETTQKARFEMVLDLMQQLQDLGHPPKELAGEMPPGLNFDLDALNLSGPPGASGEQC

As to PEX3 CTD (from UniProt P56589), the Kd is 10 nM.
